According to article PMC9367181 (Chemico-Biological Interactions, 2022):

T1: human carboxylesterase 1 (Homo sapiens, UniProt P23141)
T1 sequence (P23141 18-567): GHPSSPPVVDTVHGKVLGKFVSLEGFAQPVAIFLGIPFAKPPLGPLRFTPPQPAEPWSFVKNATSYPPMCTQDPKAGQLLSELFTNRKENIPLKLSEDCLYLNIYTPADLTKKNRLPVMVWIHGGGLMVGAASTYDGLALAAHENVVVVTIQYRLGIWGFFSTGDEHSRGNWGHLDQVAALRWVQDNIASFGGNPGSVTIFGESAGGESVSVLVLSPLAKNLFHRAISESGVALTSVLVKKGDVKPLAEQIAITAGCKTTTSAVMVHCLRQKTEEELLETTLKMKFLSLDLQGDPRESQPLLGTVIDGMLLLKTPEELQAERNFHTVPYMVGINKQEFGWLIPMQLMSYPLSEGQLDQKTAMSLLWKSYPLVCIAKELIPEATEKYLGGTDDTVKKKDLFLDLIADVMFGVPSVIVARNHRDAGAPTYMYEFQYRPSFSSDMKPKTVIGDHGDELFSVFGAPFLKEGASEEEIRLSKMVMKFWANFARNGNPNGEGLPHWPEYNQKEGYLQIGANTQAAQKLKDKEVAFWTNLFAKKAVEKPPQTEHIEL


Experiments:
[1] = molecular target: T1, human carboxylesterase 1; test: inhibition of remdesivir hydrolysis in CES1-expressing cell S9 fraction, HPLC; assay type: biochemical
[2] = substrate: CCC(CC)COC(=O)[C@H](C)N[P@](=O)(OC[C@H]1O[C@@](C#N)(c2ccc3c(N)ncnn23)[C@H](O)[C@@H]1O)Oc1ccccc1; test: Michaelis-Menten kinetics of hydrolysis to GS-704277 in S9 fraction, HPLC; assay type: biochemical, Homo sapiens

Molecule	Ki [1]	Km [2]
C=C(C)[C@@H]1CCC(C)=C[C@H]1c1c(O)cc(CCCCC)cc1O [cannabidiol]	0.89 µM	
human carboxylesterase 1 (Homo sapiens) (protein) GHPSSPPVVDTVHGKVLGKFVSLEGFAQPVAIFLGIPFAKPPLGPLRFTPPQPAEPWSFVKNATSYPPMCTQDPKAGQLLSELFTNRKENIPLKLSEDCLYLNIYTPADLTKKNRLPVMVWIHGGGLMVGAASTYDGLALAAHENVVVVTIQYRLGIWGFFSTGDEHSRGNWGHLDQVAALRWVQDNIASFGGNPGSVTIFGESAGGESVSVLVLSPLAKNLFHRAISESGVALTSVLVKKGDVKPLAEQIAITAGCKTTTSAVMVHCLRQKTEEELLETTLKMKFLSLDLQGDPRESQPLLGTVIDGMLLLKTPEELQAERNFHTVPYMVGINKQEFGWLIPMQLMSYPLSEGQLDQKTAMSLLWKSYPLVCIAKELIPEATEKYLGGTDDTVKKKDLFLDLIADVMFGVPSVIVARNHRDAGAPTYMYEFQYRPSFSSDMKPKTVIGDHGDELFSVFGAPFLKEGASEEEIRLSKMVMKFWANFARNGNPNGEGLPHWPEYNQKEGYLQIGANTQAAQKLKDKEVAFWTNLFAKKAVEKPPQTEHIEL		14.19 µM
human carboxylesterase 1 (Homo sapiens; G143E) (protein) GHPSSPPVVDTVHGKVLGKFVSLEGFAQPVAIFLGIPFAKPPLGPLRFTPPQPAEPWSFVKNATSYPPMCTQDPKAGQLLSELFTNRKENIPLKLSEDCLYLNIYTPADLTKKNRLPVMVWIHGGELMVGAASTYDGLALAAHENVVVVTIQYRLGIWGFFSTGDEHSRGNWGHLDQVAALRWVQDNIASFGGNPGSVTIFGESAGGESVSVLVLSPLAKNLFHRAISESGVALTSVLVKKGDVKPLAEQIAITAGCKTTTSAVMVHCLRQKTEEELLETTLKMKFLSLDLQGDPRESQPLLGTVIDGMLLLKTPEELQAERNFHTVPYMVGINKQEFGWLIPMQLMSYPLSEGQLDQKTAMSLLWKSYPLVCIAKELIPEATEKYLGGTDDTVKKKDLFLDLIADVMFGVPSVIVARNHRDAGAPTYMYEFQYRPSFSSDMKPKTVIGDHGDELFSVFGAPFLKEGASEEEIRLSKMVMKFWANFARNGNPNGEGLPHWPEYNQKEGYLQIGANTQAAQKLKDKEVAFWTNLFAKKAVEKPPQTEHIEL		93.94 µM
